According to patent publication US9994644B2, “mAB 2 anti-Met antibody” (Agency for Science, Technology and Research, priority 2013, dated 2018):
Entries after “also recorded” stand apart in the source; their conditions may differ.

Experiments:
c-Met α-chain peptides [1] = target: T1, c-Met α-chain peptides (Homo sapiens, UniProt P08581); experiment: Pepscan ELISA-based epitope mapping; type: binding; design: mAb 2 binding to peptide O27: dose or concentration left out as unconfirmed; conditions: absorbance at 450 nm
T1 construct: consecutive overlapping peptides that span the entire c-Met α-chain; purchased Mimotopes (Australia); host or cells: chemical synthesis
Experimental: (§1) Identifying the region of c-Met bound by the antibody is important in determining whether the antibody might be able to block c-Met from binding to its ligand, HGF. Using an ELISA-based assay (Pepscan), synthesised peptides were added to strepatvidin-coated plates and antibody binding to their respective epitopes was determined colorimetrically. The peptides were consecutive overlapping peptides that span the entire c-Met α-chain.
(§2) Peptides that were linked to biotin by an SGSG linker sequence at the N-terminus were synthesised by Mimotopes (Australia). Peptides for Pepscan: Peptides that span the entire α-chain of c-Met were synthesised. A total of fifty-five peptides with consecutive, overlapping sequences were synthesised. […]
(§3) Variations of peptides O28 and O29, where each amino acid residue was sequentially substituted for an alanine residue, were synthesised. […] Colour change was monitored by eye and the reaction was stopped by adding 100 mM sulphuric acid. Absorbance was read at 450 nm in a microplate reader (SPECTRAmax PLUS^384, Molecular Device, U.S.A.). […] Computer imaging of the epitopes were analysed by PyMol (DeLano Scientific LLC, U.S.A.) software.
(§4) Pepscan analysis was used to determine the region of c-Met α-chain bound by mAb 2. […] Binding of the antibody was detected by colorimetric assay and analysed by absorbance reading at […].

c-Met α-chain peptides [2] = experiment: Pepscan ELISA-based epitope mapping; type: binding, human; design: mAb 2 binding to peptide O27: dose or concentration left out as unconfirmed; conditions: absorbance at 450 nm
Experimental: as §1, §2, §3, §4

mAb 2 binding to peptide O27 (c-Met α-chain peptides [1]): does not bind
B1: mAb 2: murine bivalent anti-α-chain c-Met monoclonal antibody, IgG1, kappa; CDRs SEQ ID NO: 2-7; epitope IEE and CPDC (antibody, listed as Homo sapiens)
heavy: QVQLKESGGGLVQPGGSLTLSCATSGFTFTDHYMSWVRQPPGKALEWLAFIRNKAKGYTTEYNASVRGRFTISRDNSQNIVYLQMNTLRTEDSATYYCARDGVGIAYWGQTLVTVSAAKTTPPSVYPLAP
light: SIVMTQSPLSLPVSLGDQASISCRSSQSLENINGNTYKNWYFQKPGQSPQLLIYRVSNRVSGVLDRFSGSGSGTDFTLKITRVEAEDLGVYFCLQVTHVPWTFGGGTKLEIKRADAAPTKSIS
mAb 2 binding to peptides O28 and O29 (c-Met α-chain peptides [2]): equal affinity; also recorded: no binding preference
